Measured values as given in US20060217299.

Key:
[1] = biological target: GST-XIP (D25A, D70A, D80A)
[2] = biological target: GST-XIP (D39A) [GST: P08515]

B1: caspase-1 (Calbiochem, Co., Ltd.) (protein)
chain: NPAMPTSSGSEGNVKLCSLEEAQRIWKQKSAEIYPIMDKSSRTRLALIICNEEFDSIPRRTGAEVDITGMTMLLQNLGYSVDVKKNLTASDMTTELEAFAHRPEHKTSDSTFLVFMSHGIREGICGKKHSEQVPDILQLNAIFNMLNTKNCPSLKDKPKVIIIQACRGDSPGVVWFKDSVGVSGNLSLPTTEEFEDDAIKKAHIEKDFIAFCSSTPDNVSWRHPTMGSVFIGRLIEHMQEYACSCDVEEIFRKVRFSFEQPDGRAQMPTTERVTLTRCFYLFPGH
caspase-1 protease assay (SDS-PAGE, western blotting with anti-GST antibody) (GST [GST: P08515]): GST was not cleaved by caspase-1 | caspase-1 protease assay (SDS-PAGE, western blotting with anti-GST antibody) (GST-XIP (D25A)): fragment located at the higher molecular weight side was detected; fragment located at the lower molecular weight side not detected when using GST-XIP (D25A) | caspase-1 protease assay (SDS-PAGE, western blotting with anti-GST antibody) (GST-XIP (D25A, D70A)): When using GST-XIP (D25A, D70A) as a substrate, a new fragment other than the aforementioned fragments was detected | caspase-1 protease assay (SDS-PAGE, western blotting with anti-GST antibody) [1]: This fragment was not detected when using GST-XIP (D25A, D70A, D80A) as a substrate | caspase-1 protease assay (SDS-PAGE, western blotting with anti-GST antibody) [2]: fragment located at the higher molecular weight side was detected; fragment located at the lower molecular weight side was detected when using GST-XIP (D39A) | caspase-1 protease assay (SDS-PAGE, western blotting with anti-GST antibody) (GST-XIP (D58A)): fragment located at the higher molecular weight side was detected; fragment located at the lower molecular weight side was detected when using GST-XIP (D58A) | caspase-1 protease assay (SDS-PAGE, western blotting with anti-GST antibody) (GST-XIP (D70A)): fragment located at the higher molecular weight side not detected when using GST-XIP (D70A); fragment located at the lower molecular weight side was detected
